According to US20190309059A1 (SHANGHAI PHARMAEXPLORER, published 2019):
One block for each binder: values may come before it.

Experiments:
[1] = biological target: his-labeled human IL-13 (immunogen A) (human) (UniProt P35225); assay: cell-based or functional assay
[2] = biological target: his-labeled human IL-13 (immunogen A) (human) (UniProt P35225); assay: SPR (Biacore)
[3] = biological target: his-labeled human IL-13 (immunogen A) (human) (UniProt P35225); assay: FACS blocking, biotin-IL-13 on IL-13Ra2 HEK293 cells; antibody at 0.01 nM
[4] = biological target: his-labeled human IL-13 (immunogen A) (human) (UniProt P35225); assay: FACS blocking, biotin-IL-13 on IL-13Ra2 HEK293 cells; antibody at 0.05 nM
[5] = biological target: his-labeled human IL-13 (immunogen A) (human) (UniProt P35225); assay: FACS blocking, biotin-IL-13 on IL-13Ra2 HEK293 cells; antibody at 0.27 nM
[6] = biological target: his-labeled human IL-13 (immunogen A) (human) (UniProt P35225); assay: FACS blocking, biotin-IL-13 on IL-13Ra2 HEK293 cells; antibody at 1.33 nM
[7] = biological target: his-labeled human IL-13 (immunogen A) (human) (UniProt P35225); assay: FACS blocking, biotin-IL-13 on IL-13Ra2 HEK293 cells; antibody at 6.67 nM
[8] = biological target: his-labeled human IL-13 (immunogen A) (human) (UniProt P35225); assay: SPR (Biacore), antibody captured by anti-human Fc, immunogen A as analyte
[9] = biological target: his-labeled human IL-13 (immunogen A) (human) (UniProt P35225); assay: FACS blocking, biotin-IL-13 on IL-13Ra2 HEK293 cells; antibody at 0.002 nM
[10] = biological target: his-labeled human IL-13 (immunogen A) (human) (UniProt P35225); assay: FACS blocking, biotin-IL-13 on IL-13Ra2 HEK293 cells; antibody at 33.33 nM
[11] = biological target: his-labeled human IL-13 (immunogen A) (human) (UniProt P35225); assay: FACS blocking, biotin-IL-13 on IL-13Ra2 HEK293 cells; antibody at 166.67 nM
[12] = biological target: his-labeled human IL-13 (immunogen A) (human) (UniProt P35225); assay: FACS blocking, biotin-IL-13 on IL-13Ra1/IL-4Ra HEK293 cells; antibody at 0.01 nM
[13] = biological target: his-labeled human IL-13 (immunogen A) (human) (UniProt P35225); assay: FACS blocking, biotin-IL-13 on IL-13Ra1/IL-4Ra HEK293 cells; antibody at 0.05 nM
[14] = biological target: his-labeled human IL-13 (immunogen A) (human) (UniProt P35225); assay: FACS blocking, biotin-IL-13 on IL-13Ra1/IL-4Ra HEK293 cells; antibody at 0.27 nM
[15] = biological target: his-labeled human IL-13 (immunogen A) (human) (UniProt P35225); assay: FACS blocking, biotin-IL-13 on IL-13Ra1/IL-4Ra HEK293 cells; antibody at 1.33 nM
[16] = biological target: his-labeled human IL-13 (immunogen A) (human) (UniProt P35225); assay: FACS blocking, biotin-IL-13 on IL-13Ra1/IL-4Ra HEK293 cells; antibody at 6.67 nM
[17] = biological target: his-labeled human IL-13 (immunogen A) (human) (UniProt P35225); assay: FACS blocking, biotin-IL-13 on IL-13Ra1/IL-4Ra HEK293 cells; antibody at 0.002 nM
[18] = biological target: his-labeled human IL-13 (immunogen A) (human) (UniProt P35225); assay: FACS blocking, biotin-IL-13 on IL-13Ra1/IL-4Ra HEK293 cells; antibody at 33.33 nM
[19] = biological target: his-labeled human IL-13 (immunogen A) (human) (UniProt P35225); assay: FACS blocking, biotin-IL-13 on IL-13Ra1/IL-4Ra HEK293 cells; antibody at 166.67 nM
[20] = biological target: his-labeled human IL-13 (immunogen A) (human) (UniProt P35225); assay: FACS blocking assay: antibody titrated with biotin-labeled immunogen A (20 ng/mL); blocked partner IL-13Ra2 on HEK293 clone 1A1; Alexa 488 streptavidin
[21] = biological target: his-labeled human IL-13 (immunogen A) (human) (UniProt P35225); assay: FACS blocking assay: antibody titrated with biotin-labeled immunogen A (30 ng/mL); blocked partner IL-13Ra1/IL-4Ra on HEK293 clone 4C1; Alexa 488 streptavidin
[22] = biological target: his-labeled human IL-13R130Q variant (human) (UniProt P35225); assay: ELISA, IL-13R130Q variant; antibody at 0.11 nM
his-labeled human IL-13R130Q variant (human), sequence (P35225 other isoform, or with tags, fused parts or gaps mutant): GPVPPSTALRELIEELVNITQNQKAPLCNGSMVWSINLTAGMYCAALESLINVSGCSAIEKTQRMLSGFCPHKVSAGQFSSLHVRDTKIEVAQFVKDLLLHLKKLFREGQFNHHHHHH

[23] = biological target: his-labeled human IL-13R130Q variant (human) (UniProt P35225); assay: ELISA, IL-13R130Q variant; antibody at 0.53 nM
[24] = biological target: his-labeled human IL-13R130Q variant (human) (UniProt P35225); assay: ELISA, IL-13R130Q variant; antibody at 2.67 nM
[25] = biological target: his-labeled human IL-13R130Q variant (human) (UniProt P35225); assay: ELISA, IL-13R130Q variant; antibody at 0.004 nM
[26] = biological target: his-labeled human IL-13R130Q variant (human) (UniProt P35225); assay: ELISA, IL-13R130Q variant; antibody at 0.021 nM
[27] = biological target: his-labeled human IL-13R130Q variant (human) (UniProt P35225); assay: ELISA, IL-13R130Q variant; antibody at 13.33 nM
[28] = biological target: his-labeled human IL-13R130Q variant (human) (UniProt P35225); assay: ELISA, IL-13R130Q variant; antibody at 66.67 nM

Periostin (pg/mL), MRCS cells + IL-13 5 ng/mL; antibody at 0.0002 nM [1]: 6960 pg/mL
Periostin (pg/mL), MRCS cells + IL-13 5 ng/mL; antibody at 0.001 nM [1]: 6050 pg/mL
Periostin (pg/mL), MRCS cells + IL-13 5 ng/mL; antibody at 0.004 nM [1]: 5010 pg/mL
Periostin (pg/mL), MRCS cells + IL-13 5 ng/mL; antibody at 0.021 nM [1]: 4540 pg/mL
Periostin (pg/mL), MRCS cells + IL-13 5 ng/mL; antibody at 0.11 nM [1]: 4570 pg/mL
Periostin (pg/mL), MRCS cells + IL-13 5 ng/mL; antibody at 0.53 nM [1]: 3660 pg/mL
Periostin (pg/mL), MRCS cells + IL-13 5 ng/mL; antibody at 2.67 nM [1]: 2620 pg/mL
Periostin (pg/mL), MRCS cells + IL-13 5 ng/mL; antibody at 13.3 nM [1]: 1260 pg/mL
TARC (pg/mL), A549 cells + IL-13 + TNFα; antibody at 0.001 nM [1]: 2610 pg/mL
TARC (pg/mL), A549 cells + IL-13 + TNFα; antibody at 0.004 nM [1]: 3030 pg/mL
TARC (pg/mL), A549 cells + IL-13 + TNFα; antibody at 0.021 nM [1]: 2770 pg/mL
TARC (pg/mL), A549 cells + IL-13 + TNFα; antibody at 0.11 nM [1]: 2780 pg/mL
TARC (pg/mL), A549 cells + IL-13 + TNFα; antibody at 0.53 nM [1]: 2800 pg/mL
TARC (pg/mL), A549 cells + IL-13 + TNFα; antibody at 2.67 nM [1]: 2240 pg/mL
TARC (pg/mL), A549 cells + IL-13 + TNFα; antibody at 13.3 nM [1]: 1120 pg/mL
TARC (pg/mL), A549 cells + IL-13 + TNFα; antibody at 66.7 nM [1]: 348 pg/mL
VCAM-1 fluorescence intensity, HUVEC + IL-13 0.5 ng/mL + TNFα; antibody at 0.0002 nM [1]: 368
VCAM-1 fluorescence intensity, HUVEC + IL-13 0.5 ng/mL + TNFα; antibody at 0.001 nM [1]: 343
VCAM-1 fluorescence intensity, HUVEC + IL-13 0.5 ng/mL + TNFα; antibody at 0.004 nM [1]: 374
VCAM-1 fluorescence intensity, HUVEC + IL-13 0.5 ng/mL + TNFα; antibody at 0.021 nM [1]: 403
VCAM-1 fluorescence intensity, HUVEC + IL-13 0.5 ng/mL + TNFα; antibody at 0.11 nM [1]: 316
VCAM-1 fluorescence intensity, HUVEC + IL-13 0.5 ng/mL + TNFα; antibody at 0.53 nM [1]: 286
VCAM-1 fluorescence intensity, HUVEC + IL-13 0.5 ng/mL + TNFα; antibody at 2.67 nM [1]: 272
VCAM-1 fluorescence intensity, HUVEC + IL-13 0.5 ng/mL + TNFα; antibody at 13.3 nM [1]: 223
Kd [2]: < 90000 pM
mean fluorescence intensity [3]: 97.6
mean fluorescence intensity [4]: 94
mean fluorescence intensity [5]: 78.4
mean fluorescence intensity [6]: 49.1
mean fluorescence intensity [7]: 31
Kd [8]: 1020 pM
koff [8]: 0.000271 s⁻¹
kon [8]: 267000 M⁻¹ s⁻¹
mean fluorescence intensity [9]: 97.5
mean fluorescence intensity [10]: 27.8
mean fluorescence intensity [11]: 24.6
mean fluorescence intensity [12]: 98.3
mean fluorescence intensity [13]: 96.9
mean fluorescence intensity [14]: 83.7
mean fluorescence intensity [15]: 53.3
mean fluorescence intensity [16]: 27.3
mean fluorescence intensity [17]: 96
mean fluorescence intensity [18]: 22.6
mean fluorescence intensity [19]: 20.8
IC50 (read off the curve) [20]: 700 pM
IC50 (read off the curve) [21]: 1000 pM
B1: c70F10A10 (mouse-human chimeric IL-13 antibody) (antibody, V domains shown)
VH: QIQLQQSGAELARPGASVKLSCKASGYTFTSYGISWVKQRDGQGLEWIGEIYPRSGNTDYNEKFKGKATLTADKSSSTAYMELRSLTSEDSAVYFCSSFTTLVPTDYFDYWGQGTTLTVSS
VL: DIMMSQSPSSLAVSVGEKVSMTCKSSQSLLYSSNQKNYLAWYQQKPGQSPKMLIYWASTRETGVPDRFTGSGSGTDFTLTISSVMAEDLAVYYCHQYFTYPRTFGDGTKLEVK

TARC (pg/mL), A549 cells + IL-13 5 ng/mL + TNFα; antibody at 0.001 nM [1]: 2000 pg/mL
TARC (pg/mL), A549 cells + IL-13 5 ng/mL + TNFα; antibody at 0.004 nM [1]: 1830 pg/mL
TARC (pg/mL), A549 cells + IL-13 5 ng/mL + TNFα; antibody at 0.021 nM [1]: 1600 pg/mL
TARC (pg/mL), A549 cells + IL-13 5 ng/mL + TNFα; antibody at 0.11 nM [1]: 1630 pg/mL
TARC (pg/mL), A549 cells + IL-13 5 ng/mL + TNFα; antibody at 0.5 nM [1]: 1500 pg/mL
TARC (pg/mL), A549 cells + IL-13 5 ng/mL + TNFα; antibody at 2.7 nM [1]: 1140 pg/mL
TARC (pg/mL), A549 cells + IL-13 5 ng/mL + TNFα; antibody at 13.3 nM [1]: 656 pg/mL
TARC (pg/mL), A549 cells + IL-13 5 ng/mL + TNFα; antibody at 66.7 nM [1]: 207 pg/mL
mean fluorescence intensity [3]: 75.6
mean fluorescence intensity [4]: 70.8
mean fluorescence intensity [5]: 46.8
mean fluorescence intensity [6]: 46
mean fluorescence intensity [7]: 42.3
mean fluorescence intensity [9]: 76.7
mean fluorescence intensity [10]: 39.1
mean fluorescence intensity [11]: 37.8
mean fluorescence intensity [12]: 73.5
mean fluorescence intensity [13]: 67.6
mean fluorescence intensity [14]: 51.9
mean fluorescence intensity [15]: 30.7
mean fluorescence intensity [16]: 24.7
mean fluorescence intensity [17]: 72.5
mean fluorescence intensity [18]: 20.3
mean fluorescence intensity [19]: 19.3
IC50 (read off the curve) [20]: 100 pM
B2: 70F10A10 (lead antibody, mouse hybridoma) (antibody, V domains shown)
VH: B1 VH
VL: B1 VL

OD450 nm [22]: 0.8
OD450 nm [23]: 2.13
OD450 nm [24]: 2.97
Kd [2]: < 90000 pM
OD450 nm [25]: 0.11
OD450 nm [26]: 0.23
OD450 nm [27]: 3.23
OD450 nm [28]: 3.31
Kd [8]: 336 pM
koff [8]: 0.000445 s⁻¹
kon [8]: 1.33e+06 M⁻¹ s⁻¹
B3: c35H6E1 (mouse-human chimeric IL-13 antibody) (antibody, V domains shown)
VH: QVTLKESGPGILQSSQTLSLTCSFSGFSLSTSNMGVSWIRQPSGKGLEWLAHIYWDDDKRYNPSLESRLTISKDTSRNQVFLKITSVDTADSATYYCARRTNYFSTRDYFDYWGQGTTLTVSS
VL: DIQMTQSPASLSVSVGETVTITCRASENIYSNLVWYQQKQGKSPQLLVYAATKLADGVPSRFSGSGSGTQYSLKINSLQSEDFGSYYCQHFWGFPWTFGGGTKLEIK
